Test results as given in publication PMC4840434, “The interactome of Streptococcus pneumoniae and its bacteriophages show highly specific patterns of interactions among bacteria and their phages” (Scientific Reports, 2016).

Tests used:
Test in all cases: pull-down; LuMPIS: N-terminally MBP-tagged bait pulled down on amylose beads, N-terminally eGFP-luciferase-tagged prey detected by luciferase activity; both expressed in HEK cells, raw protein extracts; quadruplicates; LIR against MBP without ORF
[1] = target: Dp-1 orf60, Hypothetical protein (LuMPIS construct) (phage Dp-1 of S. pneumoniae)
[2] = target: Dp-1 orf47, Hypothetical protein (LuMPIS construct) (phage Dp-1 of S. pneumoniae)
[3] = target: Dp-1 orf39, Zinc finger protein (LuMPIS construct) (phage Dp-1 of S. pneumoniae)
[4] = target: Cp-1 orf16, Hypothetical protein (LuMPIS construct) (phage Cp-1 of S. pneumoniae)
[5] = target: Dp-1 orf9, No similarity (LuMPIS construct) (phage Dp-1 of S. pneumoniae)
[6] = target: Dp-1 orf32, Hypothetical protein (LuMPIS construct) (phage Dp-1 of S. pneumoniae)
[7] = target: Dp-1 orf31, Hypothetical protein (LuMPIS construct) (phage Dp-1 of S. pneumoniae)
[8] = target: Dp-1 orf16, NAD-dependent DNA ligase (LuMPIS construct) (phage Dp-1 of S. pneumoniae)
[9] = target: Dp-1 orf58, Holin (LuMPIS construct) (phage Dp-1 of S. pneumoniae)
[10] = target: Dp-1 orf72, Membrane protein (LuMPIS construct) (phage Dp-1 of S. pneumoniae)
[11] = target: Dp-1 orf51, Hypothetical protein (LuMPIS construct) (phage Dp-1 of S. pneumoniae)
[12] = target: Dp-1 orf33, Hypothetical protein (LuMPIS construct) (phage Dp-1 of S. pneumoniae)
[13] = target: T1, Cp-1 Cpl1, Lysozyme (LuMPIS construct) (phage Cp-1 of S. pneumoniae, UniProt P15057 1-339); settings: partners not purified
T1 construct: Cpl1 lysozyme of phage Cp-1; ORF in a Gateway LuMPIS vector; source: HEK cells, raw protein extract
T1 sequence: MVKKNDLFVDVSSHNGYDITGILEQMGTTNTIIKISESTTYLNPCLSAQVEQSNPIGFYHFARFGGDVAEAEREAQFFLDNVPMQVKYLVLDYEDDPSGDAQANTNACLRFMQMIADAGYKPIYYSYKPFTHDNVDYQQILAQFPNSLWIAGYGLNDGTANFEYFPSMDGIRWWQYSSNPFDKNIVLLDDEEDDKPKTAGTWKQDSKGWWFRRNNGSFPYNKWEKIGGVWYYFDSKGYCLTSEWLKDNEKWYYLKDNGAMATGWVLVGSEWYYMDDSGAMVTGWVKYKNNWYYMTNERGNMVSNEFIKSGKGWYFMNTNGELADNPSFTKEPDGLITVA

## SP_2024, PTS system, IIA component (LuMPIS construct) (from UniProt A0A0H2US90 1-108) (natural protein)
[1]
  LIR (luminescence intensity ratio against MBP alone): 5

## SP_0687, ABC transporter, ATP-binding protein (LuMPIS construct) (from UniProt A0A0H2UP48 1-213) (natural protein)
[2]
  LIR (luminescence intensity ratio against MBP alone): 4

## SP_0259, Holliday junction DNA helicase RuvB (LuMPIS construct) (from UniProt Q97SR6 1-332) (natural protein)
[3]
  LIR (luminescence intensity ratio against MBP alone): 10
[4]
  LIR (luminescence intensity ratio against MBP alone): 12
[5]
  LIR (luminescence intensity ratio against MBP alone): 11
[6]
  LIR (luminescence intensity ratio against MBP alone): 3
[7]
  LIR (luminescence intensity ratio against MBP alone): 4
[8]
  LIR (luminescence intensity ratio against MBP alone): 5

## SP_1606, glycosyl transferase, family 2 (LuMPIS construct) (from UniProt A0A0H2UQY5 1-320) (natural protein)
[9]
  LIR (luminescence intensity ratio against MBP alone): 3
[10]
  LIR (luminescence intensity ratio against MBP alone): 50

B1: SP_1672, recombination protein RecR (LuMPIS construct) (natural protein)
chain: MLYPTPIAKLIDSYSKLPGIGIKTATRLAFYTIGMSADDVNEFAKNLLSAKRELTYCSICGRLTDDDPCSICTDPTRDQTTILVLEDSRDVAAMENIQEYHGLYHVLHGLISPMNGISPDDINLKSLMTRLMDSEVSEVIVATNATADGEATSMYLSRLLKPAGIKVTRLARGLAVGADIEYADEVTLLRAIENRTEL
[11]
  LIR (luminescence intensity ratio against MBP alone): 6

B2: SP_1088, DNA repair protein RadC (LuMPIS construct) (natural protein)
chain: MYSISFQEDSLLPRERLAKEGVEALSNQELLAILLRTGTRQASVFEIAQKVLNNLSSLTDLKKMTLQELQSLSGIGRVKAIELQAMIELGHRIHKHETLEMESILSSQKLAKKMQQELGDKKQEHLVALYLNTQNQIIHQQTIFIGSVTRSIAEPREILHYAIKHMATSLILVHNHPSGAVAPSQNDDHVTKLVKEACELMGIVLLDHLIVSHSNYFSYREKTDLI
[12]
  LIR (luminescence intensity ratio against MBP alone): 3

B3: SP_1208, uridine kinase (LuMPIS construct) (natural protein, S. pneumoniae TIGR4, UniProt P67413 1-212, looked up)
chain: MQNRPIIIGVTGGSGGGKTSVSRAILSHFPDEKISMIEHDSYYKDQSHLTFEERVKTNYDHPFAFDTDLMIEQIKELLAGRPVDIPTYDYTEHTRSSKTYRQEPQDVFIVEGILVLEDKRLRDLMDIKIFVDTDDDVRIIRRIKRDMEERGRSLDSVINQYLGVVKPMYHQFIESTKRYADIVIPEGVSNTVAIDLLTTKIAKILEEARNSK
notes: SP_1208 uridine kinase, S. pneumoniae TIGR4; ORF in a Gateway LuMPIS vector; source: HEK cells, raw protein extract
[13]
  LIR (luminescence intensity ratio against MBP alone): 4
